Test results published in patent US12454527B2, “Conjugate monomethyl auristatin E to obtain a composition for treatment of prostate cancer” (priority 2019, dated 2025).
Like-named read-outs stand apart in the source and are kept apart here. Starred links: 1 amine or outer side, 2 acyl side, 3 side chain; linkers in the order of their positions; H or OH if unused. Non-standard residues stand in square brackets, D forms with d. Residues, ends and D or L forms follow the SMILES beside them. ξ: configuration not given here. *: point of attachment. GluureaLys(ε-3-ClBenzyl) = O=C(O)CC[C@H](NC(=O)N[C@@H](CCCCN(Cc1cccc(Cl)c1)*)C(=O)O)C(=O)O; Dolaproine = CO[C@@H]([C@@H]1CCCN1)[C@@H](C)C(=O)O; Dil = CC[C@H](C)[C@H](NC)[C@@H](CC(=O)O)OC; X1 = O=C(CCCc1cn(CCCN[*:1])nn1)[*:2]; PABC = O=C(OCc1ccc(N[*:1])cc1)[*:2]; X2 = C[C@@H](N*)[C@@H](O)c1ccccc1; Cit = NC(=O)NCCC[C@H](N)C(=O)O; Suc = O=C(CCC(=O)[*:2])[*:1]; NMeV = CN[C@H](C(=O)O)C(C)C; ξV = CC(C)C(N)C(=O)O; Ahx = NCCCCCC(=O)O

Experiments:
[1] = Assessment of the tolerability in the 22Rv1 xenograft study (body weight, survival, general health); type: in vivo, mice; settings: 0.3 mg/kg; for Body weight of mice (M ± m): in g (unit assumed)
[2] = test system: Lymphoid Leukosis P388; test: Antineoplastic activity on lymphoid leukosis P388 model (lifespan/survival); type: in vivo, male mice BDF1; settings: 0.5 and 1 mg/kg
Description: Lymphoid Leukosis P388 (male mice BDF1)—observation was held for 30 days since the first product administration (the product administration was started 24 hours after revaccination) and it was administered 3 times intraperitoneally in a day.
• 1. Group 1—tumor growth control (TGC) • 2. Group 2—placebo (diluent) • 3. Group 3—intraperitoneal Conjugate (I) administration in a dose of 0.5 mg/kg 3 times; • 4. Group 4—intraperitoneal Conjugate (I) administration in a dose of 1.0 mg/kg 3 times:
Experimental animals of control group (TGC) were administered with 0.9% saline, the placebo group was injected with the diluent (DMSO+Haemodes) of similar volume. The antineoplastic activity was determined according to mice lifespan.

[3] = Pharmacokinetics in plasma of rabbits after a single injection; type: in vivo; settings: male, Soviet Chinchilla, rabbit, plasma; for level at 0.5 h: 0.50 hour; for level at 1.5 h: 1.50 hour
Description: The pharmacokinetics study for the Conjugate (I) product in plasma of rabbits and rats after a single injection.
The leporids and rodents are the standard targets for preclinical studies of potential drug products as well as determining the pharmacokinetic parameters. The rabbits and rats are recommended as test systems to study pharmacokinetic properties of pharmaceutical products by the regulatory documents (FIG. 7, FIG. 8).
[…] The pharmacokinetic data, determined from this number of test animals, are sufficient to obtain the primary quantitative characteristics of test product distribution and elimination and the calculation of descriptive statistics parameters.
• 1. Conjugate (1) • 2. Solubilizer Pluronic F127—in the amount, five-fold greater than the conjugate amount by weight. • 3, Diluent—Haemodes infusion solution. • Dimethyl sulfoxide—in the amount of 5% of the prepared volume. • Rabbit experiment (see Tables 5, 6), • Rat experiment (see Tables 7, 8).

[4] = rabbits N=6, read-out: Concentration in blood plasma, Geometr. mean
[5] = rabbits N=6, read-out: Concentration in blood plasma, Mean value
[6] = rabbits N=6, read-out: Concentration in blood plasma, Median

In the case of CC[C@H](C)[C@@H]([C@@H](CC(=O)N1CCC[C@H]1[C@H](OC)[C@@H](C)C(=O)N[C@H](C)[C@@H](O)c1ccccc1)OC)N(C)C(=O)[C@@H](NC(=O)[C@H](C(C)C)N(C)C(=O)OCc1ccc(NC(=O)[C@H](CCCNC(N)=O)NC(=O)C(NC(=O)CCCc2cn(CCCNC(=O)[C@H](Cc3ccc(O)cc3)NC(=O)[C@H](Cc3ccccc3)NC(=O)CCC(=O)NCCCCCC(=O)N(CCCC[C@H](NC(=O)N[C@@H](CCC(=O)O)C(=O)O)C(=O)O)Cc3cccc(Cl)c3)nn2)C(C)C)cc1)C(C)C (some centres unmarked) [Conjugate (I)] ({GluureaLys(ε-3-ClBenzyl)-Ahx-Suc}-FY[X1][ξV][Cit][PABC][NMeV]V[Dil][Dolaproine]-X2), the “Body weight of mice (M ± m)” value ([1]; day 0 after treatment initiated) is reported as 22.2 ± 0.53, the “Body weight of mice (M ± m)” value ([1]; day 2) is reported as 21.2 ± 0.36 and the “Body weight of mice (M ± m)” value ([1]; day 4) is reported as 18.0 ± 0.48. For the same compound, the “Body weight of mice (M ± m)” value ([1]; day 6) was 19.2 ± 0.35, the “Body weight of mice (M ± m)” value ([1]; day 8) was 19.4 ± 0.4 and the Death cases ([1]; mice) was “no death cases”. The Survival ([1]; mice, whole experiment) was 100%, the “General health and mice behavior” value ([1]; within and after intake) was “satisfactory without any pathologic changes and gastrointestinal and any other toxicity” and the Antineoplastic activity [2] was “presence of the antineoplastic activity”. For the same compound, the AUC0-t ([3]; intravenous, 0.81 mg/kg, rabbits N=6, read-out: AUC0-t, Geometr. mean) was 30200 ng·h/mL, the AUC0-t ([3]; intravenous, 0.81 mg/kg, rabbits N=6, read-out: AUC0-t, Mean value) was 30700 ng·h/mL and the AUC0-t ([3]; intravenous, 0.81 mg/kg, rabbits N=6, read-out: AUC0-t, Median) was 30200 ng·h/mL. For the same compound, the AUC(0-inf) ([3]; intravenous, 0.81 mg/kg, rabbits N=6, read-out: AUC0-∞, Geometr. mean) was 34700 ng·h/mL, the AUC(0-inf) ([3]; intravenous, 0.81 mg/kg, rabbits N=6, read-out: AUC0-∞, Mean value) was 35100 ng·h/mL and the AUC(0-inf) ([3]; intravenous, 0.81 mg/kg, rabbits N=6, read-out: AUC0-∞, Median) was 36100 ng·h/mL. For the same compound, the MRT last ([3]; intravenous, 0.81 mg/kg, rabbits N=6, read-out: MRT0-t, Geometr. mean) was 3.43 h, the MRT last ([3]; intravenous, 0.81 mg/kg, rabbits N=6, read-out: MRT0-t, Mean value) was 3.44 h and the MRT last ([3]; intravenous, 0.81 mg/kg, rabbits N=6, read-out: MRT0-t, Median) was 3.38 h. For the same compound, the half-life ([3]; intravenous, 0.81 mg/kg, rabbits N=6, read-out: T1/2, Geometr. mean (converted)) was 4.33 h, the half-life ([3]; intravenous, 0.81 mg/kg, rabbits N=6, read-out: T1/2, Mean value (converted)) was 4.58 h and the half-life ([3]; intravenous, 0.81 mg/kg, rabbits N=6, read-out: T1/2, Median (converted)) was 4.59 h. The Vd ([3]; intravenous, 0.81 mg/kg, rabbits N=6, read-out: Vd, Geometr. mean) was 0.146 L/kg, the Vd ([3]; intravenous, 0.81 mg/kg, rabbits N=6, read-out: Vd, Mean value) was 0.158 L/kg and the Vd ([3]; intravenous, 0.81 mg/kg, rabbits N=6, read-out: Vd, Median) was 0.144 L/kg. The AUC0-t ([3]; intravenous, 0.81 mg/kg, rabbits, individual animals, read-out: AUC0-t) was 31400 ng·h/mL, the AUC(0-inf) ([3]; intravenous, 0.81 mg/kg, rabbits, individual animals, read-out: AUC0-∞) was 35300 ng·h/mL and the C0 ([3]; intravenous, 0.81 mg/kg, rabbits, individual animals, read-out: C0) was 10700 ng/mL. It also gave an MRT last ([3]; intravenous, 0.81 mg/kg, rabbits, individual animals, read-out: MRT0-t) of 3.12 h, a level at 0.08 h [3, 4] of 10300 ng/mL and a level at 0.08 h [3, 5] of 10500 ng/mL. It also gave a level at 0.08 h [3, 6] of 9600 ng/mL, a level at 0.25 h [3, 4] of 9410 ng/mL and a level at 0.25 h [3, 5] of 9670 ng/mL. For the same compound, the level at 0.25 h [3, 6] was 9840 ng/mL, the level at 0.5 h [3, 4] was 7410 ng/mL and the level at 0.5 h [3, 5] was 7580 ng/mL. It also gave a level at 0.5 h [3, 6] of 7100 ng/mL, a level at 1 h [3, 4] of 6040 ng/mL and a level at 1 h [3, 5] of 6160 ng/mL. It also gave a level at 1 h [3, 6] of 5890 ng/mL, a level at 1.5 h [3, 5] of 5120 ng/mL and a level at 1.5 h [3, 6] of 4970 ng/mL. The level at 2 h [3, 4] was 4570 ng/mL, the level at 2 h [3, 5] was 4630 ng/mL and the level at 2 h [3, 6] was 4510 ng/mL. The level at 3 h [3, 4] was 3440 ng/mL, the level at 3 h [3, 5] was 3520 ng/mL and the level at 3 h [3, 6] was 3650 ng/mL. It also gave a level at 4 h [3, 4] of 2430 ng/mL, a level at 4 h [3, 5] of 2520 ng/mL and a level at 4 h [3, 6] of 2540 ng/mL. It also gave a level at 6 h [3, 4] of 1510 ng/mL and a level at 6 h [3, 5] of 1540 ng/mL.
